Measurements as given in IntAct's records for PubMed 30017192.

How the values were obtained:
kpca_human PRKCA = kpca_human PRKCA (UniProt P17252)
kapca_human PRKACA = kapca_human PRKACA (UniProt P17612)

- effect of a mutation on the interaction (kpca_human PRKCA): with no effect
- effect of a mutation on the interaction (kapca_human PRKACA): with no effect
Substance: Serine/threonine-protein kinase pim-1 (Homo sapiens), P11309-2 K158R
